According to patent publication US7211423B2, “Acetyl CoA carboxylase 2 sequences and methods” (Bristol-Myers Squibb Co., priority 2004, dated 2007):

System: CC(=O)SCCNC(=O)CCNC(=O)[C@H](O)C(C)(C)COP(=O)(O)OP(=O)(O)OC[C@H]1O[C@@H](n2cnc3c(N)ncnc32)[C@H](O)[C@@H]1OP(=O)(O)O
Assay: purified protein, by the assay type
Conditions: other: substrate varied, all other reagents saturating, 37° C., pH 7.5

Sequence of recombinant human ACC2 (Homo sapiens; V2141I) (chain, as listed by the source V2141I): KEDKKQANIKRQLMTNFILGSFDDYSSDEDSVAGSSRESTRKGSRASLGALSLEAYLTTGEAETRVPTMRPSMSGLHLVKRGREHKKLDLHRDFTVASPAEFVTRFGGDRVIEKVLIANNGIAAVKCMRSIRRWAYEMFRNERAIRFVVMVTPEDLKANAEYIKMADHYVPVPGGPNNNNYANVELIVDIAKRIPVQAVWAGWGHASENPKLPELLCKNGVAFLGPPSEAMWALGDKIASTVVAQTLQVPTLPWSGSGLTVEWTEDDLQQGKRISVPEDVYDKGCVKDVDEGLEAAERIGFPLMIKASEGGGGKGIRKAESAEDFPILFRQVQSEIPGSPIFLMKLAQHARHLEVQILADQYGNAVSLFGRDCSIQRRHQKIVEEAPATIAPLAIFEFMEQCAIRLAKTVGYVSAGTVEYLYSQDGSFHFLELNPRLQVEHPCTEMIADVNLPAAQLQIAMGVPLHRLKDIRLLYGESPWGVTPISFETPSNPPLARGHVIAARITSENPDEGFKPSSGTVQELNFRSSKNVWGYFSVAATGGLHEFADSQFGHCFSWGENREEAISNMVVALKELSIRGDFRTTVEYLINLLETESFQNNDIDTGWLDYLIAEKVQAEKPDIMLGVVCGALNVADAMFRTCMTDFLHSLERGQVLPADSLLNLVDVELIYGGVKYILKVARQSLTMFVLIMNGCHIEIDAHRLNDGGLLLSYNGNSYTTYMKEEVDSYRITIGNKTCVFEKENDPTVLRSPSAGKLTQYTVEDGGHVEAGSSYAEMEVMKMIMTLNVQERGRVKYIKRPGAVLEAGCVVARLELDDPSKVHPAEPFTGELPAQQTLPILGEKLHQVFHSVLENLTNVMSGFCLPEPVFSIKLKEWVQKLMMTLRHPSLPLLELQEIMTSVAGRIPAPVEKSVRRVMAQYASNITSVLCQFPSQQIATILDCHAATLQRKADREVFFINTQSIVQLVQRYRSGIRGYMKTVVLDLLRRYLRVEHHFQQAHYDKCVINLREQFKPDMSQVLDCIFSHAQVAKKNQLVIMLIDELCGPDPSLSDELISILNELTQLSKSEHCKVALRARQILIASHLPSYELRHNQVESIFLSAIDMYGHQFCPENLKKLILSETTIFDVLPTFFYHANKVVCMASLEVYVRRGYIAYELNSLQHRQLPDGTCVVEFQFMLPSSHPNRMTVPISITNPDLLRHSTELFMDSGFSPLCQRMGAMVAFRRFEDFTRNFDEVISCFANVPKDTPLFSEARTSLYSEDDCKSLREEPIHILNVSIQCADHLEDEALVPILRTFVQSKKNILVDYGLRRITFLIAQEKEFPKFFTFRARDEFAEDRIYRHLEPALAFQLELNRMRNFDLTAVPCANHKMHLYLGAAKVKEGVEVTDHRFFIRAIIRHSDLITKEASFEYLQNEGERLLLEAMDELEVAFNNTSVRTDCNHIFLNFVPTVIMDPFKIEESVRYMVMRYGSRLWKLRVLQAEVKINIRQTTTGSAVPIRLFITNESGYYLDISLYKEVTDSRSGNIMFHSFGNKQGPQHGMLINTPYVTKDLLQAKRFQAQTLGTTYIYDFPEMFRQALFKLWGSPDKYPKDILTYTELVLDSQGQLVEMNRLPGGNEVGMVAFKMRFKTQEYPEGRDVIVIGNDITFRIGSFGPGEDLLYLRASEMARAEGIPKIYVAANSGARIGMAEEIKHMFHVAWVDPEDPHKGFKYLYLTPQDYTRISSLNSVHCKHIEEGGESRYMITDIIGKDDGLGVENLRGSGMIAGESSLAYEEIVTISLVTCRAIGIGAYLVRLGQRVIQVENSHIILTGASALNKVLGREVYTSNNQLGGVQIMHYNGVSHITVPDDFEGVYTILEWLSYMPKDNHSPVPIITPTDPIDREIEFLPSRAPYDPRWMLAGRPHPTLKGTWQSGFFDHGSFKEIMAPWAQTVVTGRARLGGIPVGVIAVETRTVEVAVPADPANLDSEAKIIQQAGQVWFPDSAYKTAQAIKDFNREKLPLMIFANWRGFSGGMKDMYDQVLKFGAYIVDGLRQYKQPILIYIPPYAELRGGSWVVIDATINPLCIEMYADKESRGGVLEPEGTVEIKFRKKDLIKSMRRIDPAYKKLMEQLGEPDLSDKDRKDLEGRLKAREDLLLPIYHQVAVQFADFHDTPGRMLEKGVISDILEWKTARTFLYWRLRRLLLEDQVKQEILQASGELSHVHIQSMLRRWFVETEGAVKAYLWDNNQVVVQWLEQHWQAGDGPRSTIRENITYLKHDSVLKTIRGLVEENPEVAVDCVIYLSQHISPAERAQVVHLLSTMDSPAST

recombinant human ACC2 (Homo sapiens; V2141I)
Km: 23 µM
